Measurements: publication PMC3158092
Read-outs that look alike come from different tables or passages of the source.

Assays:
[1] = target: YPet; test: FRET or BRET
[2] = target: YPet; test: FRET or BRET; remark: listed apart in the source

Row | FRET efficiency, oxidized (0 mmol/L DTT) [1] | FRET efficiency, reduced (10 mmol/L DTT) [1] | FRET efficiency, oxidized (0 mmol/L DTT) [2] | FRET efficiency, reduced (10 mmol/L DTT) [2] | Substance
1 | 0.371 | 0.375 | 0.27 | 0.265 | CyPet
2 | – | – | 0.288 | 0.376 | ECFP
